Data: patent US20100235935
Residue numbers refer to the chain shown, from its start.

Tests used:
[1] = tested on: T1, recombinant pladin (plasma anti-diabetic nucb2 peptide)
T1 sequence: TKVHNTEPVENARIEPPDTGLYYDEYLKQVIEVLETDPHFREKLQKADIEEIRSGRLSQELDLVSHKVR

[2] = tested on: T2, pladin mutant A5 (Lys13→Ala)
T2 sequence: T1 sequence with R13A

recombinant nesfatin-1 = target: T3, recombinant nesfatin-1 (UniProt P81117)
T3 sequence: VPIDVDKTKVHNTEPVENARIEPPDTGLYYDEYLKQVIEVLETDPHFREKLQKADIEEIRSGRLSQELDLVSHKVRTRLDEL

[3] = tested on: T4, pladin mutant A4 (Lys28→Ala)
T4 sequence: T1 sequence with K28A

acetylated rPladin = tested on: T5, acetylated rPladin
T5 sequence: T1 sequence

plasmin, sequence (P00747 20-580): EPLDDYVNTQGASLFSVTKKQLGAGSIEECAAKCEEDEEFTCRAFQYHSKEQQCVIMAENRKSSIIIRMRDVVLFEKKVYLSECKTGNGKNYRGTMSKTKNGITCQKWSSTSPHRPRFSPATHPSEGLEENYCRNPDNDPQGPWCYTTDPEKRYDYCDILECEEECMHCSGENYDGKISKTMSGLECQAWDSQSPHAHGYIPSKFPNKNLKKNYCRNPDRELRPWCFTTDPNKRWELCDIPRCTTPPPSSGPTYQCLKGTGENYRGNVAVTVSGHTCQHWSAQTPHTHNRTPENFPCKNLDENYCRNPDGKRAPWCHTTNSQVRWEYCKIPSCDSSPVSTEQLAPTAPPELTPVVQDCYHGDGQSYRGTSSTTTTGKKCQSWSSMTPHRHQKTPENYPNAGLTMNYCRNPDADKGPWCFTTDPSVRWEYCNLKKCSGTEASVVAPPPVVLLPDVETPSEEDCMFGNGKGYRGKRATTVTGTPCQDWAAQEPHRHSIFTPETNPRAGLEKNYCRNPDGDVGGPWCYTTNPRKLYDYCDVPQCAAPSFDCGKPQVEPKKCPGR
plasmin, sequence (P00747 581-810): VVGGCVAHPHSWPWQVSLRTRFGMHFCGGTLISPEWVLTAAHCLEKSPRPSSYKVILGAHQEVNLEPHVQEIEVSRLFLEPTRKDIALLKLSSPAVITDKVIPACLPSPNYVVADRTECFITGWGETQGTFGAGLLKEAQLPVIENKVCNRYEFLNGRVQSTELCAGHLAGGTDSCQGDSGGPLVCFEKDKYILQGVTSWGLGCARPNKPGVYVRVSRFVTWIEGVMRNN

**Q.** What does the source list for plasmin?
**A.** degradation on incubation with plasmin in vitro [1]: when rPladin was incubated with plasmin, it was rapidly degraded; plasmin proteolysis in vitro [2]: resistant to plasmin proteolysis; digestion by plasmin in vitro (recombinant nesfatin-1): Nesfatin-1 was completely digested by plasmin within 2 hours; plasmin proteolysis in vitro [3]: resistant to plasmin proteolysis; plasmin proteolysis in vitro (acetylated rPladin): resistant to plasmin proteolysis
